Assay results from the supplement of paper PMC11246515.
± gives the standard deviation of the averaged measurements.

Assay: total protein half-life in vivo (active degradation + dilution); higher = more stable protein
[1] = E. coli NCM3722 delta-clpP delta-lon delta-hslV, growth: N-lim chemostat, doubling time 6 h
[2] = E. coli NCM3722 delta-hslV, growth: N-lim chemostat, doubling time 6 h
[3] = E. coli NCM3722 delta-smpB, growth: N-lim chemostat, doubling time 6 h
[4] = wild type E. coli NCM3722, growth: C-lim chemostat, doubling time 3 h
[5] = wild type E. coli NCM3722, growth: C-lim chemostat, doubling time 6 h
[6] = wild type E. coli NCM3722, growth: C-lim chemostat, doubling time 12 h
[7] = wild type E. coli NCM3722, growth: N-lim chemostat, doubling time 6 h
[8] = wild type E. coli NCM3722, growth: P-lim chemostat, doubling time 6 h
[9] = wild type E. coli NCM3722, growth: P-lim chemostat, doubling time 12 h
[10] = E. coli NCM3722 delta-lon, growth: N-lim chemostat, doubling time 6 h
[11] = wild type E. coli NCM3722, growth: N-lim chemostat, doubling time 12 h
[12] = E. coli NCM3722 delta-clpP, growth: N-lim chemostat, doubling time 6 h

Sequence	total protein half-life in vivo [1] [h]	total protein half-life in vivo [2] [h]	total protein half-life in vivo [3] [h]	total protein half-life in vivo [4] [h]	total protein half-life in vivo [5] [h]	total protein half-life in vivo [6] [h]	total protein half-life in vivo [7] [h]	total protein half-life in vivo [8] [h]	total protein half-life in vivo [9] [h]	total protein half-life in vivo [10] [h]	total protein half-life in vivo [11] [h]	total protein half-life in vivo [12] [h]
MSIKTSNTDFKTRIRQQIEDPIMRKAVANAQQRIGANRQKMVDELGHWEEWRDRAAQIRDHVLSNLDAYLYQLSEKVTQNGGHVYFARTKEDATRYILQVAQRKNARKVVKSKSMVTEEIGVNHVLQDAGIQVIETDLGEYILQLDQDPPSHVVVPAIHKDRHQIRRVLHERLGYEGPETPEAMTLFIRQKIREDFLSAEIGITGCNFAVAETGSVCLVTNEGNARMCTTLPKTHIAVMGMERIAPTFAEVDVLITMLARSAVGARLTGYNTWLTGPREAGHVDGPEEFHLVIVDNGRSEVLASEFRDVLRCIRCGACMNTCPAYRHIGGHGYGSIYPGPIGAVISPLLGGYKDFKDLPYACSLCTACDNVCPVRIPLSKLILRHRRVMAEKGITAKAEQRAIKMFAYANSHPGLWKVGMMAGAHAASWFINGGKTPLKFGAISDWMEARDLPEADGESFRSWFKKHQAQEKKNG	5.21 ± 0.71	3.96 ± 3.1	1.76 ± 0.072	1.83 ± 0.084	3.47 ± 0.48	4.06 ± 0.2	1.72	1.89	3.14 ± 0.62	–	–	–
MIARWFWREWRSPSLLIVWLALSLAVACVLALGNISDRMEKGLSQQSREFMAGDRALRSSREVPQAWLEEAQKRGLKVGKQLTFATMTFAGDTPQLANVKAVDDIYPMYGDLQTNPPGLKPQAGSVLLAPRLMALLNLKTGDTIDVGDATLRIAGEVIQEPDSGFNPFQMAPRLMMNLADVDKTGAVQPGSRVTWRYKFGGNENQLDGYEKWLLPQLKPEQRWYGLEQDEGALGRSMERSQQFLLLSALLTLLLAVAAVAVAMNHYCRSRYDLVAILKTLGAGRAQLRKLIVGQWLMVLTLSAVTGGAIGLLFENVLMVLLKPVLPAALPPASLWPWLWALGTMTVISLLVGLRPYRLLLATQPLRVLRNDVVANVWPLKFYLPIVSVVVVLLLAGLMGGSMLLWAVLAGAVVLALLCGVLGWMLLNVLRRMTLKSLPLRLAVSRLLRQPWSTLSQLSAFSLSFMLLALLLVLRGDLLDRWQQQLPPESPNYFLINIATEQVAPLKAFLAEHQIVPESFYPVVRARLTAINDKPTEGNEDEALNRELNLTWQNTRPDHNPIVAGNWPPKADEVSMEEGLAKRLNVALGDTVTFMGDTQEFRAKVTSLRKVDWESLRPNFYFIFPEGALDGQPQSWLTSFRWENGNGMLTQLNRQFPTISLLDIGAILKQVGQVLEQVSRALEVMVVLVTACGMLLLLAQVQVGMRQRHQELVVWRTLGAGKKLLRTTLWCEFAMLGFVSGLVAAIGAETALAVLQAKVFDFPWEPDWRLWIVLPCSGALLLSLFGGWLGARLVKGKALFRQFAG	6.27 ± 0.098	6.06 ± 0.42	6.86 ± 0.47	3.48 ± 0.66	6.92 ± 1.4	–	6.21 ± 1.2	5.85 ± 0.5	10.5 ± 0.91	6.45 ± 0.35	13.3 ± 1.4	–
MPPRRYNPDTRRDELLERINLDIPGAVAQALREDLGGTVDANNDITAKLLPENSRSHATVITRENGVFCGKRWVEEVFIQLAGDDVTIIWHVDDGDVINANQSLFELEGPSRVLLTGERTALNFVQTLSGVASKVRHYVELLEGTNTQLLDTRKTLPGLRSALKYAVLCGGGANHRLGLSDAFLIKENHIIASGSVRQAVEKASWLHPDAPVEVEVENLEELDEALKAGADIIMLDNFETEQMREAVKRTNGKALLEVSGNVTDKTLREFAETGVDFISVGALTKHVQALDLSMRFR	4.6 ± 0.47	4.1 ± 0.29	4.05 ± 0.33	2.86 ± 0.25	5.827 ± 0.04	8.46 ± 0.51	3.72 ± 0.12	5.5 ± 0.4	9.73 ± 0.27	6.13 ± 1.8	7.1 ± 0.15	5.46 ± 2.3
MQQVFFQETEFLNSVIDYDHKVETENLCLDIAYGTDKNFLFGCGISIASILKYNEGSRLCFHIFTDYFGDDDRKYFDALALQYKTRIKIYLINGDRLRSLPSTKNWTHAIYFRFVIADYFINKAPKVLYLDADIICQGTIEPLINFSFPDDKVAMVVTEGQADWWEKRAHSLGVAGIAKGYFNSGFLLINTAQWAAQQVSARAIAMLNEPEIIKKITHPDQDVLNMLLADKLIFADIKYNTQFSLNYQLKESFINPVTNDTIFIHYIGPTKPWHDWAWDYPVSQAFMEAKNASPWKNTALLKPNNSNQLRYSAKHMLKKHRYLKGFSNYLFYFIEKIKH	6.72 ± 0.28	5.66 ± 0.42	5.82 ± 0.17	2.95 ± 0.088	5.41 ± 0.61	10.4 ± 1.1	5.16 ± 1.2	5.85 ± 0.45	11.3 ± 1	5.78 ± 0.3	11.7 ± 0.74	–
MILIIYAHPYPHHSHANKRMLEQARTLEGVEIRSLYQLYPDFNIDIAAEQEALSRADLIVWQHPMQWYSIPPLLKLWIDKVFSHGWAYGHGGTALHGKHLLWAVTTGGGESHFEIGAHPGFDVLSQPLQATAIYCGLNWLPPFAMHCTFICDDETLEGQARHYKQRLLEWQEAHHG [P0A754]	–	5.27	6.82	–	4.93	10.9 ± 0.14	–	6.43 ± 0.21	10.3 ± 1.5	6.37	10.5 ± 2.2	6.16
MLRMTPLASAIVALLLGIEAYAAEETFDTHFMIGGMKDQQVANIRLDDNQPLPGQYDIDIYVNKQWRGKYEIIVKDNPQETCLSREVIKRLGINSDNFASGKQCLTFEQLVQGGSYTWDIGVFRLDFSVPQAWVEELESGYVPPENWERGINAFYTSYYLSQYYSDYKASGNNKSTYVRFNSGLNLLGWQLHSDASFSKTNNNPGVWKSNTLYLERGFAQLLGTLRVGDMYTSSDIFDSVRFRGVRLFRDMQMLPNSKQNFTPRVQGIAQSNALVTIEQNGFVVYQKEVPPGPFAITDLQLAGGGADLDVSVKEADGSVTTYLVPYAAVPNMLQPGVSKYDLAAGRSHIEGASKQSDFVQAGYQYGFNNLLTLYGGSMVANNYYAFTLGAGWNTRIGAISVDATKSHSKQDNGDVFDGQSYQIAYNKFVSQTSTRFGLAAWRYSSRDYRTFNDHVWANNKDNYRRDENDVYDIADYYQNDFGRKNSFSANMSQSLPEGWGSVSLSTLWRDYWGRSGSSKDYQLSYSNNLRRISYTLAASQAYDENHHEEKRFNIFISIPFDWGDDVSTPRRQIYMSNSTTFDDQGFASNNTGLSGTVGSRDQFNYGVNLSHQHQGNETTAGANLTWNAPVATVNGSYSQSSTYRQAGASVSGGIVAWSGGVNLANRLSETFAVMNAPGIKDAYVNGQKYRTTNRNGVVIYDGMTPYRENHLMLDVSQSDSEAELRGNRKIAAPYRGAVVLVNFDTDQRKPWFIKALRADGQSLTFGYEVNDIHGHNIGVVGQGSQLFIRTNEVPPSVNVAIDKQQGLSCTITFGKEIDESRNYICQ	–	–	–	–	–	–	–	–	9.63	–	–	–
MFPEYRDLISRLKNENPRFMSLFDKHNKLDHEIARKEGSDGRGYNAEVVRMKKQKLQLKDEMLKILQQESVKEV [P0ACW6]	–	–	–	1.33	1.87 ± 0.1	1.75	–	–	–	–	–	–
